B1: spartin MIT domain (residues 1-107), purified (domain or fragment)
chain: MEQEPQNGEPAEIKIIREAYKKAFLFVNKGLNTDELGQKEEAKNYYKQGIGHLLRGISISSKESEHTGPGWESARQMQQKMKETLQNVRTRLEILEKGLATSLQNDL
B2: spastin MIT domain, purified (domain or fragment)
chain: HKQAFEYISIALRIDEDEKAGQKEQAVEWYKKGIEELEKGIAVIVTGQGEQCERARRLQAKMMTNLVMAKDRLQLL
B3: spastin F124D MIT domain, purified (domain or fragment)
chain: HKQADEYISIALRIDEDEKAGQKEQAVEWYKKGIEELEKGIAVIVTGQGEQCERARRLQAKMMTNLVMAKDRLQLL

The values that follow come from paper PMC2947466.

As a reminder, the Kd is the constant that tells how readily two partners part at equilibrium.

In the assay the target is GST-Ist1-CTR (residues 296-335) (human). The assay can be described thus: SPR. (In general: In SPR one partner is held on a chip, and binding of the other changes the refractive index at the surface.)
In turn, B1 came in with a Kd of 10.4 µM. Regarding B2, the equilibrium dissociation constant (Kd) worked out at 4.6 µM. As to B3, the Kd was 471 µM.
